Results on five substances are retold here after patent publication US20120222143.

Holding throughout (test): cell_activity
For series [1], the system named is p65 (RELA) TALEN pair (left and right) (synthetic construct). As to conditions: porcine zygotes, 10 ng/ul mRNA each TALEN, 16 of 56.
Series [2] relates to DMDE7.1 TALEN pair (left and right, FokI homodimer) (synthetic construct). As to conditions: fibroblasts, day 3 SURVEYOR
The subject of series [3] is ACAN12 TALEN pair (left and right, FokI homodimer) (synthetic construct). As to conditions: fibroblasts, day 3 SURVEYOR
Series [4] concerns btGDF83.1 TALEN pair (left and right) (synthetic construct). As to conditions: bovine fibroblasts, SURVEYOR; active at 30 and 37 C.
In series [5] the test system is DMDE6 TALEN pair (left and right) (synthetic construct). As to conditions: pig fibroblasts, day 3, co-transfected with DMDE7.1.

In series [1], p65 target locus showed an activity (% embryos with indels) of 29.

DMD exon 7 target locus had an activity (% chromosomes cleaved (NHEJ)) in series [2] of 38.

In series [3], ACAN12 target locus registered an activity (% chromosomes cleaved (NHEJ)) of 25.

Substance GDF8 exon 3 target locus yielded an activity (% chromosomes cleaved (NHEJ)) in series [4] below 16.

For the substance DMD exon 6 target locus, the activity in series [5] came out at 24 % NHEJ.
